According to PMC10718521, “Complexity of αvβ6-integrin targeting RGD peptide trimers: emergence of non-specific binding by synergistic interaction” (RSC Medicinal Chemistry, 2023):

Legend:
[1] = assay type: physicochemical; details: pH 7.4
Experimental: The trimers were labeled with ^68Ga for biodistribution and small-animal PET experiments employing a fully automated method.[39] Non-radioactive reference compounds were obtained by complexation of equimolar amounts of ^natGa^3+ in form of the aq. chloride solution.[39] The polarity of the ^68Ga or ^natGa^3+ containing conjugates, respectively, was assessed by two established proxies, namely the n-octanol/water distribution coefficient at pH 7.4, log D7.4, and the retention time tR on a reverse-phase HPLC column with a suitable liquid-phase gradient (10–50% acetonitrile in water with 0.1% trifluoroacetic acid) (see Fig. 2a). […] A measurable decrease of the log D7.4 was only observed for ≥3 Tyr. […]
(§1) Unless otherwise noted, the materials and the instrumentation used (analytical and preparative HPLC, ESI-MS, gamma counter, centrifuge), and the experimental procedures (^68Ga radiolabeling and radio-TLC for quality control, determination of log D7.4, cultivation of H2009 human lung adenocarcinoma cells, generation of tumor xenografts in CB17 SCID mice, small-animal PET, and biodistribution) were described before.[19] All animal experiments have been carried out according to applicable law and institutional guidelines of Technical University of Munich, and were approved by the responsible local authority (Regierung von Oberbayern). The H2009 cells were regularly authenticated and tested for mycoplasma contamination. The affinities of the pentynoic amide functionalized peptides were determined employing a well-established ELISA protocol on immobilized integrins.[36] TRAP-triazide,[38]FF (previously termed AvB6),[32] and YY (also referred to as Tyr2-alkyne)[33] were synthesized as described previously. RP-HPLC for assessment of compound polarity was done on a 150 × 4.6 mm ReproSil-Pur 120 C18-AQ 5 μm column, with a flow of 0.75 mL min^−1 and a gradient of 10–50% MeCN in water, both containing 0.1% trifluoroacetic acid, within 15 min. The required ^natGa-complexes of the peptide trimers were synthesized by reaction with equimolar amounts of aq. GaCl3 as described.[19]

in vivo = assay: in vivo; parameters: species or system mice; details: CB17 SCID, mouse, total radioactivity
Description: The biodistribution of all ^68Ga-labeled peptide trimers was investigated in severe combined immunodeficiency (SCID) mice bearing subcutaneous xenografts of the αvβ6-integrin expressing human lung adenocarcinoma cell line H2009 on their right shoulders.
as §1

[2] = tumor/organ ratio Heart (myocard)
[3] = tumor/organ ratio Large intestine (empty)
[4] = tumor/organ ratio Small intestine (empty)
[5] = tumor/organ ratio Stomach (empty)

SMILES	logD [1]	tissue uptake at 1.5 h (in vivo; Adrenals uptake)	tissue uptake at 1.5 h (in vivo; Blood uptake)	tissue uptake at 1.5 h (in vivo; Heart (myocard) uptake)	tissue uptake at 1.5 h (in vivo; Kidneys uptake)	tissue uptake at 1.5 h (in vivo; Large intestine (empty) uptake)	tissue uptake at 1.5 h (in vivo; Liver uptake)	tissue uptake at 1.5 h (in vivo; Lung uptake)	tissue uptake at 1.5 h (in vivo; Muscle uptake)	tissue uptake at 1.5 h (in vivo; Pancreas uptake)	tissue uptake at 1.5 h (in vivo; Small intestine (empty) uptake)	tissue uptake at 1.5 h (in vivo; Spleen uptake)	tissue uptake at 1.5 h (in vivo; Stomach (empty) uptake)	tissue uptake at 1.5 h (in vivo; Tumor H2009 uptake)	tissue to tissue ratio at 1.5 h (in vivo; tumor/organ ratio Adrenals)	tissue to tissue ratio at 1.5 h (in vivo; tumor/organ ratio Blood)	tissue to tissue ratio at 1.5 h (in vivo; [2])	tissue to tissue ratio at 1.5 h (in vivo; tumor/organ ratio Kidneys)	tissue to tissue ratio at 1.5 h (in vivo; [3])	tissue to tissue ratio at 1.5 h (in vivo; tumor/organ ratio Liver)	also measured
CC(C)C[C@@H]1NC(=O)[C@H](CC(=O)O)NC(=O)CNC(=O)[C@H](CCCNC(=N)N)NC(=O)[C@H](Cc2ccccc2)NC(=O)[C@H](CCCCNC(=O)CCc2cn(CCCNC(=O)CCP(=O)(O)CN3CCN(CP(=O)(O)CCC(=O)NCCCn4cc(CCC(=O)NCCCC[C@H]5C(=O)N[C@@H](Cc6ccc(O)cc6)C(=O)N[C@@H](CCCNC(=N)N)C(=O)NCC(=O)N[C@@H](CC(=O)O)C(=O)N[C@@H](CC(C)C)C(=O)N[C@@H](C)C(=O)N[C@@H](Cc6ccc(O)cc6)C(=O)N6CCC[C@@H]6C(=O)N5C)nn4)CCN(CP(=O)(O)CCC(=O)NCCCn4cc(CCC(=O)NCCCC[C@H]5C(=O)N[C@@H](Cc6ccc(O)cc6)C(=O)N[C@@H](CCCNC(=N)N)C(=O)NCC(=O)N[C@@H](CC(=O)O)C(=O)N[C@@H](CC(C)C)C(=O)N[C@@H](C)C(=O)N[C@@H](Cc6ccc(O)cc6)C(=O)N6CCC[C@@H]6C(=O)N5C)nn4)CC3)nn2)N(C)C(=O)[C@H]2CCCN2C(=O)[C@H](Cc2ccccc2)NC(=O)[C@H](C)NC1=O (68Ga complex, metal not drawn) [Y4]	-1.9 ± 0.1	0.71 ± 0.37 %ID/g	0.86 ± 0.26 %ID/g	0.47 ± 0.12 %ID/g	91.3 ± 8.28 %ID/g	2.29 ± 0.59 %ID/g	0.93 ± 0.14 %ID/g	3.22 ± 0.63 %ID/g	1.41 ± 0.06 %ID/g	0.28 ± 0.08 %ID/g	1.35 ± 0.53 %ID/g	1.57 ± 0.57 %ID/g	4.92 ± 1.06 %ID/g	4.47 ± 0.96 %ID/g	7.1 ± 1.9	5.5 ± 1.4	9.6 ± 1.3	0.1	2.1 ± 0.6	5 ± 0.5	tissue to tissue ratio at 1.5 h (in vivo; tumor/organ ratio Lung): 1.4 ± 0.2; tissue to tissue ratio at 1.5 h (in vivo; tumor/organ ratio Muscle): 12.2 ± 2.8; tissue to tissue ratio at 1.5 h (in vivo; tumor/organ ratio Pancreas): 16.5 ± 1.6; tissue to tissue ratio at 1.5 h (in vivo; [4]): 3.7 ± 1; tissue to tissue ratio at 1.5 h (in vivo; tumor/organ ratio Spleen): 3 ± 0.7; tissue to tissue ratio at 1.5 h (in vivo; [5]): 1 ± 0.3
CC(C)C[C@@H]1NC(=O)[C@H](CC(=O)O)NC(=O)CNC(=O)[C@H](CCCNC(=N)N)NC(=O)[C@H](Cc2ccccc2)NC(=O)[C@H](CCCCNC(=O)CCc2cn(CCCNC(=O)CCP(=O)(O)CN3CCN(CP(=O)(O)CCC(=O)NCCCn4cc(CCC(=O)NCCCC[C@H]5C(=O)N[C@@H](Cc6ccccc6)C(=O)N[C@@H](CCCNC(=N)N)C(=O)NCC(=O)N[C@@H](CC(=O)O)C(=O)N[C@@H](CC(C)C)C(=O)N[C@@H](C)C(=O)N[C@@H](Cc6ccccc6)C(=O)N6CCC[C@@H]6C(=O)N5C)nn4)CCN(CP(=O)(O)CCC(=O)NCCCn4cc(CCC(=O)NCCCC[C@H]5C(=O)N[C@@H](Cc6ccc(O)cc6)C(=O)N[C@@H](CCCNC(=N)N)C(=O)NCC(=O)N[C@@H](CC(=O)O)C(=O)N[C@@H](CC(C)C)C(=O)N[C@@H](C)C(=O)N[C@@H](Cc6ccccc6)C(=O)N6CCC[C@@H]6C(=O)N5C)nn4)CC3)nn2)N(C)C(=O)[C@H]2CCCN2C(=O)[C@H](Cc2ccccc2)NC(=O)[C@H](C)NC1=O (68Ga complex, metal not drawn) [Y1Y]	-1.5 ± 0.1	1.57 ± 0.41 %ID/g	2.54 ± 0.37 %ID/g	1.54 ± 0.61 %ID/g	91.2 ± 9.95 %ID/g	4.1 ± 0.84 %ID/g	4.39 ± 0.46 %ID/g	6.76 ± 2.02 %ID/g	0.75 ± 0.17 %ID/g	0.64 ± 0.11 %ID/g	2.72 ± 0.36 %ID/g	3.85 ± 0.86 %ID/g	6.78 ± 0.72 %ID/g	8.16 ± 2.01 %ID/g	5.3 ± 1.5	3.2 ± 0.7	5.7 ± 2	0.1	2 ± 0.5	1.8 ± 0.3	log D7.4 [1]: −1.4 to −1.5; tissue to tissue ratio at 1.5 h (in vivo; tumor/organ ratio Lung): 1.2 ± 0.2; tissue to tissue ratio at 1.5 h (in vivo; tumor/organ ratio Muscle): 11.2 ± 3.4; tissue to tissue ratio at 1.5 h (in vivo; tumor/organ ratio Pancreas): 12.7 ± 2.9; tissue to tissue ratio at 1.5 h (in vivo; [4]): 3 ± 0.7; tissue to tissue ratio at 1.5 h (in vivo; tumor/organ ratio Spleen): 2.2 ± 0.5; tissue to tissue ratio at 1.5 h (in vivo; [5]): 1.2 ± 0.2
CC(C)C[C@@H]1NC(=O)[C@H](CC(=O)O)NC(=O)CNC(=O)[C@H](CCCNC(=N)N)NC(=O)[C@H](Cc2ccccc2)NC(=O)[C@H](CCCCNC(=O)CCc2cn(CCCNC(=O)CCP(=O)(O)CN3CCN(CP(=O)(O)CCC(=O)NCCCn4cc(CCC(=O)NCCCC[C@H]5C(=O)N[C@@H](Cc6ccccc6)C(=O)N[C@@H](CCCNC(=N)N)C(=O)NCC(=O)N[C@@H](CC(=O)O)C(=O)N[C@@H](CC(C)C)C(=O)N[C@@H](C)C(=O)N[C@@H](Cc6ccc(O)cc6)C(=O)N6CCC[C@@H]6C(=O)N5C)nn4)CCN(CP(=O)(O)CCC(=O)NCCCn4cc(CCC(=O)NCCCC[C@H]5C(=O)N[C@@H](Cc6ccccc6)C(=O)N[C@@H](CCCNC(=N)N)C(=O)NCC(=O)N[C@@H](CC(=O)O)C(=O)N[C@@H](CC(C)C)C(=O)N[C@@H](C)C(=O)N[C@@H](Cc6ccc(O)cc6)C(=O)N6CCC[C@@H]6C(=O)N5C)nn4)CC3)nn2)N(C)C(=O)[C@H]2CCCN2C(=O)[C@H](Cc2ccccc2)NC(=O)[C@H](C)NC1=O (68Ga complex, metal not drawn) [Y2F]	-1.5 ± 0.1	0.84 ± 0.07 %ID/g	1.62 ± 0.2 %ID/g	0.76 ± 0.06 %ID/g	107 ± 7.49 %ID/g	3.96 ± 1.16 %ID/g	2.09 ± 0.17 %ID/g	5.62 ± 1.34 %ID/g	0.66 ± 0.12 %ID/g	0.38 ± 0.04 %ID/g	2.51 ± 0.5 %ID/g	3.84 ± 1.14 %ID/g	6.99 ± 3.4 %ID/g	7.99 ± 1.62 %ID/g	9.6 ± 2.2	4.9 ± 1	10.6 ± 2	0.1	2.1 ± 0.5	3.8 ± 0.9	log D7.4 [1]: −1.4 to −1.5; tissue to tissue ratio at 1.5 h (in vivo; tumor/organ ratio Lung): 1.4 ± 0.2; tissue to tissue ratio at 1.5 h (in vivo; tumor/organ ratio Muscle): 12.2 ± 1.5; tissue to tissue ratio at 1.5 h (in vivo; tumor/organ ratio Pancreas): 20.8 ± 3.9; tissue to tissue ratio at 1.5 h (in vivo; [4]): 3.2 ± 0.4; tissue to tissue ratio at 1.5 h (in vivo; tumor/organ ratio Spleen): 2.2 ± 0.5; tissue to tissue ratio at 1.5 h (in vivo; [5]): 1.3 ± 0.3
CC(C)C[C@@H]1NC(=O)[C@H](CC(=O)O)NC(=O)CNC(=O)[C@H](CCCNC(=N)N)NC(=O)[C@H](Cc2ccccc2)NC(=O)[C@H](CCCCNC(=O)CCc2cn(CCCNC(=O)CCP(=O)(O)CN3CCN(CP(=O)(O)CCC(=O)NCCCn4cc(CCC(=O)NCCCC[C@H]5C(=O)N[C@@H](Cc6ccccc6)C(=O)N[C@@H](CCCNC(=N)N)C(=O)NCC(=O)N[C@@H](CC(=O)O)C(=O)N[C@@H](CC(C)C)C(=O)N[C@@H](C)C(=O)N[C@@H](Cc6ccccc6)C(=O)N6CCC[C@@H]6C(=O)N5C)nn4)CCN(CP(=O)(O)CCC(=O)NCCCn4cc(CCC(=O)NCCCC[C@H]5C(=O)N[C@@H](Cc6ccccc6)C(=O)N[C@@H](CCCNC(=N)N)C(=O)NCC(=O)N[C@@H](CC(=O)O)C(=O)N[C@@H](CC(C)C)C(=O)N[C@@H](C)C(=O)N[C@@H](Cc6ccccc6)C(=O)N6CCC[C@@H]6C(=O)N5C)nn4)CC3)nn2)N(C)C(=O)[C@H]2CCCN2C(=O)[C@H](Cc2ccccc2)NC(=O)[C@H](C)NC1=O (68Ga complex, metal not drawn) [Y0]	-1.5 ± 0.1	2.4 ± 0.38 %ID/g	4.01 ± 0.74 %ID/g	2.13 ± 0.42 %ID/g	90.7 ± 6.7 %ID/g	5.74 ± 1.36 %ID/g	7.55 ± 0.78 %ID/g	16.9 ± 5.34 %ID/g	1.1 ± 0.22 %ID/g	0.91 ± 0.22 %ID/g	4.2 ± 1.07 %ID/g	5.21 ± 1.05 %ID/g	10.3 ± 1.62 %ID/g	8.73 ± 0.81 %ID/g	–	–	–	–	–	–	log D7.4 [1]: −1.4 to −1.5
